Data taken from US20180169199A1.

What was measured:
[1] = target: HLA-A*02:01 molecule (product of HLA-A*02:01 gene) (human); experiment: flow cytometry, T2 cells + β2m, peptide dilution series, BB7.2 staining
[2] = target: HLA-A*02:06 molecule (product of HLA-A*02:06 gene) (human); experiment: flow cytometry, RA2.6 cells, peptide dilution series, BB7.2 staining
[3] = target: HLA-A*24:02 molecule (product of HLA-A*24:02 gene) (human); experiment: flow cytometry, acid-stripped C1R-A24 cells + β2m, peptide dilution series, 17A12 staining

Binder	Binding Experiment Data (log Kd) [1]	Binding Experiment Data (log Kd) [2]	Binding Experiment Data (log Kd) [3]
YGAAVQAAI (modifications not checked) [peptide … (SEQ ID NO: 7)]	-4.9 log Kd	-5.37 log Kd	-5.5 log Kd
MVLTKMKEI (modifications not checked) [peptide … (SEQ ID NO: 6)]	-4.59 log Kd	-5.53 log Kd	-5.82 log Kd
TFDVSILTI (modifications not checked) [peptide … (SEQ ID NO: 2)]			-6.24 log Kd
FYPEEISSM (modifications not checked) [peptide … (SEQ ID NO: 3)]			-7.66 log Kd
KLLQDFFNG (modifications not checked) [peptide … (SEQ ID NO: 4)]	-4.96 log Kd	-5.27 log Kd	
LLLDVAPLS (modifications not checked) [peptide … (SEQ ID NO: 8)]	-6.06 log Kd	-6.17 log Kd	
VLVGGSTRI (modifications not checked) [peptide … (SEQ ID NO: 5)]	-4.86 log Kd	-5.07 log Kd	-6.17 log Kd

Other lines, results leading:

Binding Experiment Data (log Kd) [1]	Binding Experiment Data (log Kd) [2]	Binding Experiment Data (log Kd) [3]	Binder
-5.91 log Kd	-6.42 log Kd		NQPGVLIQV (modifications not checked) [peptide … (SEQ ID NO: 14)]
-5.56 log Kd	-4.28 log Kd	-5.49 log Kd	AMTKDNNLL (modifications not checked) [peptide … (SEQ ID NO: 9)]
-4.56 log Kd	-5.18 log Kd		NLLGRFELS (modifications not checked) [peptide … (SEQ ID NO: 11)]
-4.33 log Kd	-5.58 log Kd	-5.21 log Kd	ITRARFEEL (modifications not checked) [peptide … (SEQ ID NO: 10)]
-6.15 log Kd	-6.45 log Kd		AQIHDLVLV (modifications not checked) [peptide … (SEQ ID NO: 12)]
-4.76 log Kd	-5.59 log Kd	-4.37 log Kd	SVTNAVITV (modifications not checked) [peptide … (SEQ ID NO: 15)]
-5.09 log Kd	-5.02 log Kd		YAFNMKSAV (modifications not checked) [peptide … (SEQ ID NO: 13)]
